{"source": "the DeepSol protein solubility set"}
{"assay": "soluble on expression in E. coli; label from the status in PepcDB or PDB records"}
{"sequence": "MSKILGDGHVRKTVDLPDSALRLNYEKKYYEPENGDHLIFSAQLQNGRYSALTAIKPTDLLQVYGSLSYLDEQLKFGHVSIHGRTAKVFVPFSTRTTNGACWYGQGAYIDKPYLIYIFRQEEAHGCKFVAWAIYDDTRKTTSVPPTPTDIQNTSHMKKLGPPTAVQRQSDHQSVEFVQAQSGVIYDISDNYVISVTSPTCQNVEFAPTLYESWMRPGRFITFDGRRVSDVKTSKLMGSNPEDMGSIYPIRKLTPLTITISAIMNKVSHGKAGWAWNDHVGRIYIPWNSTDRYMQASKPLPFTPVHLEIAYNGKHDDIPWVACGSSLVEEQEYDQIVDENSRMLKTEDNWKIQSVVDGPENPSIFLAKFDEKGLKRTAFAKVIDLNSGNIPPTGTLVRITYYAQERHGRHAMRCVLVTTMEKVERFPKVHSIINGSGEKHFPMMYEQPIPKKQVIPPTPVQRVQAAPPPAKNCWNLKNLGSPAAQPSVQDFPTVTGDEDDNIFVEETNTALPPPGFVPPGLVAPPGLPPPPGLPAVPLSTDLAYDFKMTSSIPMTNGLGHLRLGSVWSGTPVEAKQEEPLHYFQQQDNFLGSSFGPISSTFSADNFFTELTASISQPSTSSVVNSGPISDLRNTQSEASSPGLKSDGNEPVEETNCWSSLEAATNGNNPFNSSFSYGFPHMDLPIYQKMMPNANDILKPMPLVEEELKPATSATHSEADSCTCGTEQLIWDLWQNPHFIAAFAASDPETFKRVDAKRKLFSLSNHR", "soluble on expression in E. coli": "not soluble"}
{"sequence": "ALTEEILNAQPNPICVKDRNLHYIAVNKAFSAIHDLAPDAMLGRSASDLVETELAEHFERSDRHVLETGTPYSEAEHIVRADGSDLWVVTRKYRVGLPDRHFVVTCMNDVT", "soluble on expression in E. coli": "not soluble"}
{"sequence": "MAGPSDRTFSDQTEEIMQATYRALREHGYADLTIQRIADEYGKSTAAVHYYYDTKDDLLAAFLDYLLERFVDSIHDVETTDPEARLNLLLDELLVKPQENPDLSVALLEMRSQAPYKEAFSDRFRQNDEYVRYMLKAVINHGIDEGVFTDVDAEHVTRSLLTIIDGARTRAVMLDDTEELETARQTASEYADAMLQ", "soluble on expression in E. coli": "soluble"}
{"sequence": "MKVSLAGQTVDVKKILNEIPKRTVTAALLEGGEIVAVEEADDEHAERKLVRRHDVEGKVVFVTARPCLYCARELAEAGVAGVVYLGRGRGLGPYYLARSGVEVVEVHPDEPLGYDPVDRLDVLLTFGGNPYLTEEDVAARVYCLLTGRGFDADIAPAPENLSGRVEIMVTRGDPDEAVELLKEELPVFRIRRFLISGEFDRDELRERILEDIEPRILDPFAVRARIARAGAFSSSREAEVFIGDVLTSVGREVNLNDPRTVVTVDVLGPRVSVGVEKR", "soluble on expression in E. coli": "soluble"}
{"sequence": "RAGHIEVAEVEGMSFPVKLDTGADVSSINAKDIKLFQKDGKDMVSFTYENDLGMQKAFTREVVDVMKITAKKGEKANVRPVVEMHVKLGELEKKIRVNLQDRGRFHYSMILGKNFLKHGALVASETNYIVTKKPDYEK", "soluble on expression in E. coli": "not soluble"}
{"sequence": "MSLKVKAINLYTYKEPFKSPISTPKVKLTHRESLFTEIVTYSGETYYGECNAFLTNWYDKETILTVVNRLRQWIPQVLHKDMTSFDSWLPYLNQMNDAPAARSMVVMAVYQMYNDLHDFEVQYGATVSGLTNSQIETLLETRPKRIKLKWSTSLIKDLETIRLLNFDCDIAIDANESLTKPSFLQLANVNTSDIIYIEEPFKILEDLNDIDMSIFPRIAIDEKALSIEKIQSIIQQYPIQVVVLKPFRLGGIDRMLNAMKILKEKNIRFVVGGMYEFGLSRYFTAMLAKEGSYPGDITPHGYYFSNDIVETSGILKGGMIYFTPPKVKRSLLNKVEGHHHHHH", "soluble on expression in E. coli": "not soluble"}
{"sequence": "VHFAPTITFLESPTSDHHWCIPFTVKGNPKPALQWFYNGAILNESKYICTKIHVTNHTEYHGCLQLDNPTHMNNGDYTLIAKNEYGKDEKQISAHFMGWPGID", "soluble on expression in E. coli": "soluble"}
{"sequence": "MSLTDPAPEPEPPVEGQWTALTASPDTWDETKRADISYQLLLYSFADSDGDGYGDLNGVTQKLDYLNQLGVKALWLSPIHPCMSYHGYDVTDYTKVNPQLGTESDFDRLVTEAHNRGIKIYLDYVMNHTGTAHPWFTEASSSSESPYRNYYSFSEDPKTDIAAGKIAMITQEGAAGYNAAEWFQVSDETAAVKGLLKFTLDWSNAPSPILVVSTGTKADEDNPDTGTDNAKYLYYGEDICKKFYDKGNNIYELTVDFESTWGLLIRTSNASFWPSGTKYGASSSSEKLALNKDFKLTNAGNPANIMFDSQQITYFHSHFCTDWFADLNYGPVDQAGESPAYQAIADAAKGWIARGVDGLRLDAVKHIYHSETSEENPRFLKMFYEDMNAYYKQKGHTDDFYMIGEVLSEYDKVAPYYKGLPALFEFSFWYRLEWGINNSTGCYFAKDILSYQQKYANYRSDYIEATKLSNHDEDRTSSKLGKSADKCKLAAAVLLTSAGHPYIYYGEELGLYGTKDNGDEYVRSPMLWGDSYTTNYTDKTDATVSKNVKTVADQQADTHSLLNIYFSLTRLRNTYPALAEGNMTKHSVYNEGHHHHHH", "soluble on expression in E. coli": "not soluble"}
{"sequence": "LDFDILTNDGTHRNMKLLIDLKNIFSRQLPKMPKEYIVKLVFDRHHESMVILKNKQKVIGGICFRQYKPQRFAEVAFLAVTANEQVRGYGTRLMNKFKDHMQKQNIEYLLTYADNFAIGYFKKQGFTKEHRMPQEKWKGYIKDYDGGTLMECYIHPYVDYGR", "soluble on expression in E. coli": "soluble"}
{"sequence": "MNRQELITEALKARDMAYAPYSKFQVGAALLTKDGKVYRGCNIENAAYSMCNCAERTALFKAVSEGDTEFQMLAVAADTPGPVSPCGACRQVISELCTKDVIVVLTNLQGQIKEMTVEELLPGAFSSEDLHDERKL", "soluble on expression in E. coli": "soluble"}
{"sequence": "MYKKRQRGEREREIKVEFAMHISIKTLEGKRIKLEVEDSSNTIDLKIHGEPTRELVVDLSPTPDTGAIMMIFIKTLTGRTNTYEVKGSDTIRELKAKHEEKEGIPVEQQRLIFQGRVLEDSKAISDYNIKHESTLHITLHQCGC", "soluble on expression in E. coli": "soluble"}
{"sequence": "MDKKPSILIFIVAYNAESTIENVLMRIPADLLDDFDAEVLVIDDQSSDDTVLRCAETIQSGKIRFKTNVLVNPENQGYGGNQKVGYQYAIEHDFDCVALLHGDGQYAPEYLRDLITPVTKGEAEAVFGSRMMTPFGALKGGMPAYKFVGNKILTLFQNIMLKTSLSEFHSGYRAYSVKALKQIPFHLNTPDFHFDTEIIIQLILWGFRIAERPIPTYYGDEICYVNGLKYALDVVITTTKARMQRLGLFHECKYEVIHPHNSNGYPEAKLSIKSPSGNRILEHHHHHH", "soluble on expression in E. coli": "not soluble"}
{"sequence": "VDLEKFKFHARIDDDFEDSYIQLLLDAAINYVSKITGVPNDENAPPEYDLAIMILALHWYTNREVLSDRGTNQVPYGLGMLIANLRTN", "soluble on expression in E. coli": "not soluble"}
{"sequence": "MLNEREKILLKTLVERYIHEGQPVGSRSLAKFSGLDLSPATIRNVMTDLEEMGYVSSPHTSAGRMPTTLGYRFFVDTLLVVKSLDNEQITLLENQLHPNNPTHLMNVTSRLLSELTRFVGVVVTPKRMGGAVFRHIEFVALTEKRILLILVTPEGDVQNRIILTETAYSQSDLIEAGNFLNQHYAGCTLEEIRSGLQRELTQLRRDMTGLMNAAIEIGNDALQESSEAVVIAGEHRLFDVRDLSDNLSSLKSLFEMFERKSKLLQLMELSRQAHGVKIFIGGESDETMLEEVSVVTAPYEMEGKIVGTVGVIGPRRMAYERIIPIVDITAKLLSSNLS", "soluble on expression in E. coli": "not soluble"}
{"sequence": "MSKKLTTAAGCPVAHNQNVQTAGKRGPQLLQDVWFLEKLAHFDREVIPERRMHAKGSGAYGTFTVTHDITKYTKAKIFSDIGKKTDMFARFSTVAGERGAADAERDIRGFSLKFYTEEGNWDLAGNNTPVFFLRDPLKFPDLNHAVKRDPRTNMRSAKNNWDFWTSLPEALHQVTIVMSDRGIPATYRHMHGFGSHTFSFINSDNERYWVKFHFVSQQGIKNLSDAEAGELVGNDRESHQRDLLDSIDNQDFPKWTLKVQIMPEADAATVPYNPFDLTKVWPHKDYPLIEVGEFELNRNPQNYFAEVEQAAFNPANVVPGISFSPDKMLQGRLFAYGDAQRYRLGVNHQHIPVNAPRCPVHSYHRDGAMRVDGNFGSTLGYEPNDQGQWAEQPDFSEPPLNLDGAAAHWDHREDEDYFSQPGDLFGLMTAEKQAILFDNTARNLNGVPKEIQLRHVTHCYKADPAYGEGIGKLLGFDISEYNS", "soluble on expression in E. coli": "soluble"}
{"sequence": "MRYTILTKGDSKSNALKHKMINHMKDFQMVEDSENPEIVISVGGDGTLLQAFHQYSHMLSKVAFVGIHTGHLGFYADWLPHEVEKLIIEINNSEFQVIEYPLLELIVRYNDNGYETRYLALNEATMKTENGSTLVVDVNIRGKHFERFRGDGLCISTPSGSTAYNKALGGALIHPSLEAMQIAEIASINNRVFRTVGSPLVLPKHHTCLITPVNHDTIRTTIDHVSIKHKNVNAIQYRVANEKVRFARFRPFPFWKRVHDSFISSDDERMAGDPLEHHHHHH", "soluble on expression in E. coli": "soluble"}
{"sequence": "MSLSEILTIGEPIVTFASKEPDVSLRDALEFHKILGGAELNVAIGAQRLGHSVDYISQVGEEPLGDYVIKTIKEHHVGTRYITRDADYWTAFQLKDRVTQGNPTTQNYRRGSAAAHLTPAVVDQIDLTDVRAAHMSGIFPAISATAEAAFRTLLKRLEAANILTTFDPNLRPTLWPSRGKMVTTLNELAGHAEIVLPGVEEGEILMGSTDPEKIADFYLRGARTKVVIVKVGPAGAYVKQQSGESYTVTGFKVAQVADTVGAGDGFAMGVLTALLEHKSLRSAVMRGNAVGALQVQTYGDNDGYPTPAGLQAFYQQEGVVEEGHHHHHH", "soluble on expression in E. coli": "not soluble"}
{"sequence": "SLKEVLDEKFPSNNKLEVGLGRDISGDPITVPLNEMPHLLVAGSTGSGKSVCINGIITSILLNAKPHEVKLMLIDPKMVELNVYNGIPHLLIPVVTNPHKAAQALEKIVAEMERRYDLFQHSSTRNIKGYNELIRKQNQELDEKQPELPYIVVIVDELADLMMVAGKEVENAIQRITQMARAAGIHLIVATQRPSV", "soluble on expression in E. coli": "not soluble"}
{"sequence": "MHHHHHHSSGVDLGTENLYFQSMKLIRVENFEAYFKKQQADSNCGFAEEYEDLKLVGISQPKYAAELAENRGKNRYNNVLPYDISRVKLSVQTHSTDDYINANYMPGYHSKKDFIATQGPLPNTLKDFWRMVWEKNVYAIIMLTKCVEQGRTKCEEYWPSKQAQDYGDITVAMTSEIVLPEWTIRDFTVKNIQTSESHPLRQFHFTSAPDHGVPDTTDLLINFRYLVRDYMKQSPPESPILVHCSAGVGRTGTFIAIDRLIYQIENENTVDVYGIVYDLRMHRPLMVQTEDQYVFLNQCVLDIVRSQKDSKVDLIY", "soluble on expression in E. coli": "soluble"}
{"sequence": "SKDQHLRGFFSDSTSFNILMDMLFIKGKYKSALQVLIEMKNQDVKFTKDTYVLAFAICYKLNSPESFKICTTLREEALLKGEILSRRASCFAVALALNQNEMAKAVSIFSQIMNPESIACINLNIIIHIQSNMLENLIKTLKNAAEGNLSKFVKRHVFSEEVLAKVREKVKDVPALVAKFDEIYGTLHITGQVTTDSLDAVLCHTPRDRKSHTLLLNKRMVSRRTFQPLSQSLLAE", "soluble on expression in E. coli": "soluble"}
{"sequence": "MWASPSPSVTVEFLEADSRLGGREVSLCKVAGQPDIRCECGWLELQPTRRSVNYEVVSSGGVTQSAALVTADFQSAEERSRLTVTVQLSSLARDMRDGYHEGFGAGLNNLASVAGRTMVLERVIKVPRNIVWKAWMNEKTLPQWWGPEGFSCRTKRIDLRTGGEWVFDMIGPDGTVFPNHHRYVEIRPEERLAYTLLWGENGPKHADAWASFEDQDGATKVVLGMVFSTDAEFQQAKGFGAVELGQQTLGKLERFAKFFLEHHHHHH", "soluble on expression in E. coli": "soluble"}
{"sequence": "MSLADDHIYVTSSGGSFLENVRKHMAEPFEKQSGVKVTLVPGTNPAHALKILSSRGTPPYDVAAFGGNDMYRLIRAKKLAQVDEKSVPSLADVPEKFKADWEGCGSLYDYSSVGIAYRPDKIQGGVKSWKEFVERTVAGEFGKQVFFNNLSSNVRGAEVLSMFGKIYGSGYGDIEASIATLERMKPHIFKFFTAFNDPVVLLTSGEGAIGPGWDGRTFIAEDSTKGMVKWVDPTEGAVSSGPVMAVVKGGKEDLAKAFMNYALGEEAQKAFCEAMYYGAVNRKVQYSEKLKHRLPSIDSVQLVDTALLIKNMSALLDLWNKRIASEGHHHHHH", "soluble on expression in E. coli": "soluble"}
